US20250339531A1, “DUX4 POLYPEPTIDES AND NUCLEIC ACIDS FOR TREATING INFLAMMATORY AND AUTOIMMUNE CONDITIONS” (Fred Hutchinson Cancer Center, priority 2021, published 2025)

B1: O75083 (protein, UniProt O75083 1-606, looked up)
chain: MPYEIKKVFASLPQVERGVSKIIGGDPKGNNFLYTNGKCVILRNIDNPALADIYTEHAHQVVVAKYAPSGFYIASGDVSGKLRIWDTTQKEHLLKYEYQPFAGKIKDIAWTEDSKRIAVVGEGREKFGAVFLWDSGSSVGEITGHNKVINSVDIKQSRPYRLATGSDDNCAAFFEGPPFKFKFTIGDHSRFVNCVRFSPDGNRFATASADGQIYIYDGKTGEKVCALGGSKAHDGGIYAISWSPDSTHLLSASGDKTSKIWDVSVNSVVSTFPMGSTVLDQQLGCLWQKDHLLSVSLSGYINYLDRNNPSKPLHVIKGHSKSIQCLTVHKNGGKSYIYSGSHDGHINYWDSETGENDSFAGKGHTNQVSRMTVDESGQLISCSMDDTVRYTSLMLRDYSGQGVVKLDVQPKCVAVGPGGYAVVVCIGQIVLLKDQRKCFSIDNPGYEPEVVAVHPGGDTVAIGGVDGNVRLYSILGTTLKDEGKLLEAKGPVTDVAYSHDGAFLAVCDASKVVTVFSVADGYSENNVFYGHHAKIVCLAWSPDNEHFASGGMDMMVYVWTLSDPETRVKIQDAHRLHHVSSLAWLDEHTLVTTSHDASVKEWTITY
modifications: full-length
B2: P02545 (protein, UniProt P02545 1-664, looked up)
chain: METPSQRRATRSGAQASSTPLSPTRITRLQEKEDLQELNDRLAVYIDRVRSLETENAGLRLRITESEEVVSREVSGIKAAYEAELGDARKTLDSVAKERARLQLELSKVREEFKELKARNTKKEGDLIAAQARLKDLEALLNSKEAALSTALSEKRTLEGELHDLRGQVAKLEAALGEAKKQLQDEMLRRVDAENRLQTMKEELDFQKNIYSEELRETKRRHETRLVEIDNGKQREFESRLADALQELRAQHEDQVEQYKKELEKTYSAKLDNARQSAERNSNLVGAAHEELQQSRIRIDSLSAQLSQLQKQLAAKEAKLRDLEDSLARERDTSRRLLAEKEREMAEMRARMQQQLDEYQELLDIKLALDMEIHAYRKLLEGEEERLRLSPSPTSQRSRGRASSHSSQTQGGGSVTKKRKLESTESRSSFSQHARTSGRVAVEEVDEEGKFVRLRNKSNEDQSMGNWQIKRQNGDDPLLTYRFPPKFTLKAGQVVTIWAAGAGATHSPPTDLVWKAQNTWGCGNSLRTALINSTGEEVAMRKLVRSVTVVEDDEDEDGDDLLHHHHGSHCSSSGDPAEYNLRSRTVLCGTCGQPADKASASGSGAQVGGPISSGSSASSVTVTRSYRSVGGSGGGSFGDNLVTRSYLLGNSSPRTQSPQNCSIM
modifications: full-length
B3: P12814 (protein, UniProt P12814 1-892, looked up)
chain: MDHYDSQQTNDYMQPEEDWDRDLLLDPAWEKQQRKTFTAWCNSHLRKAGTQIENIEEDFRDGLKLMLLLEVISGERLAKPERGKMRVHKISNVNKALDFIASKGVKLVSIGAEEIVDGNVKMTLGMIWTIILRFAIQDISVEETSAKEGLLLWCQRKTAPYKNVNIQNFHISWKDGLGFCALIHRHRPELIDYGKLRKDDPLTNLNTAFDVAEKYLDIPKMLDAEDIVGTARPDEKAIMTYVSSFYHAFSGAQKAETAANRICKVLAVNQENEQLMEDYEKLASDLLEWIRRTIPWLENRVPENTMHAMQQKLEDFRDYRRLHKPPKVQEKCQLEINFNTLQTKLRLSNRPAFMPSEGRMVSDINNAWGCLEQVEKGYEEWLLNEIRRLERLDHLAEKFRQKASIHEAWTDGKEAMLRQKDYETATLSEIKALLKKHEAFESDLAAHQDRVEQIAAIAQELNELDYYDSPSVNARCQKICDQWDNLGALTQKRREALERTEKLLETIDQLYLEYAKRAAPFNNWMEGAMEDLQDTFIVHTIEEIQGLTTAHEQFKATLPDADKERLAILGIHNEVSKIVQTYHVNMAGTNPYTTITPQEINGKWDHVRQLVPRRDQALTEEHARQQHNERLRKQFGAQANVIGPWIQTKMEEIGRISIEMHGTLEDQLSHLRQYEKSIVNYKPKIDQLEGDHQLIQEALIFDNKHTNYTMEHIRVGWEQLLTTIARTINEVENQILTRDAKGISQEQMNEFRASFNHFDRDHSGTLGPEEFKACLISLGYDIGNDPQGEAEFARIMSIVDPNRLGVVTFQAFIDFMSRETADTDTADQVMASFKILAGDKNYITMDELRRELPPDQAEYCIARMAPYTGPDSVPGALDYMSFSTALYGESDL
modifications: full-length
B4: Q16643 (protein, UniProt Q16643 1-649, looked up)
chain: MAGVSFSGHRLELLAAYEEVIREESAADWALYTYEDGSDDLKLAASGEGGLQELSGHFENQKVMYGFCSVKDSQAALPKYVLINWVGEDVPDARKCACASHVAKVAEFFQGVDVIVNASSVEDIDAGAIGQRLSNGLARLSSPVLHRLRLREDENAEPVGTTYQKTDAAVEMKRINREQFWEQAKKEEELRKEEERKKALDERLRFEQERMEQERQEQEERERRYREREQQIEEHRRKQQTLEAEEAKRRLKEQSIFGDHRDEEEETHMKKSESEVEEAAAIIAQRPDNPREFFKQQERVASASAGSCDVPSPFNHRPGSHLDSHRRMAPTPIPTRSPSDSSTASTPVAEQIERALDEVTSSQPPPLPPPPPPAQETQEPSPILDSEETRAAAPQAWAGPMEEPPQAQAPPRGPGSPAEDLMFMESAEQAVLAAPVEPATADATEIHDAADTIETDTATADTTVANNVPPAATSLIDLWPGNGEGASTLQGEPRAPTPPSGTEVTLAEVPLLDEVAPEPLLPAGEGCATLLNFDELPEPPATFCDPEEVEGESLAAPQTPTLPSALEELEQEQEPEPHLLTNGETTQKEGTQASEGYFSQSQEEEFAQSEELCAKAPPPVFYNKPPEIDITCWDADPVPEEEEGFEGGD
modifications: full-length
B5: Q6NZI2 (protein, UniProt Q6NZI2 1-390, looked up)
chain: MEDPTLYIVERPLPGYPDAEAPEPSSAGAQAAEEPSGAGSEELIKSDQVNGVLVLSLLDKIIGAVDQIQLTQAQLEERQAEMEGAVQSIQGELSKLGKAHATTSNTVSKLLEKVRKVSVNVKTVRGSLERQAGQIKKLEVNEAELLRRRNFKVMIYQDEVKLPAKLSISKSLKESEALPEKEGEELGEGERPEEDAAALELSSDEAVEVEEVIEESRAERIKRSGLRRVDDFKKAFSKEKMEKTKVRTRENLEKTRLKTKENLEKTRHTLEKRMNKLGTRLVPAERREKLKTSRDKLRKSFTPDHVVYARSKTAVYKVPPFTFHVKKIREGQVEVLKATEMVEVGADDDEGGAERGEAGDLRRGSSPDVHALLEITEESDAVLVDKSDSD
modifications: full-length
B6: Q07065 (protein, UniProt Q07065 1-602, looked up)
chain: MPSAKQRGSKGGHGAASPSEKGAHPSGGADDVAKKPPPAPQQPPPPPAPHPQQHPQQHPQNQAHGKGGHRGGGGGGGKSSSSSSASAAAAAAAASSSASCSRRLGRALNFLFYLALVAAAAFSGWCVHHVLEEVQQVRRSHQDFSRQREELGQGLQGVEQKVQSLQATFGTFESILRSSQHKQDLTEKAVKQGESEVSRISEVLQKLQNEILKDLSDGIHVVKDARERDFTSLENTVEERLTELTKSINDNIAIFTEVQKRSQKEINDMKAKVASLEESEGNKQDLKALKEAVKEIQTSAKSREWDMEALRSTLQTMESDIYTEVRELVSLKQEQQAFKEAADTERLALQALTEKLLRSEESVSRLPEEIRRLEEELRQLKSDSHGPKEDGGFRHSEAFEALQQKSQGLDSRLQHVEDGVLSMQVASARQTESLESLLSKSQEHEQRLAALQGRLEGLGSSEADQDGLASTVRSLGETQLVLYGDVEELKRSVGELPSTVESLQKVQEQVHTLLSQDQAQAARLPPQDFLDRLSSLDNLKASVSQVEADLKMLRTAVDSLVAYSVKIETNENNLESAKGLLDDLRNDLDRLFVKVEKIHEKV
modifications: full-length
B7: P51784 (protein, UniProt P51784 1-963, looked up)
chain: MAVAPRLFGGLCFRFRDQNPEVAVEGRLPISHSCVGCRRERTAMATVAANPAAAAAAVAAAAAVTEDREPQHEELPGLDSQWRQIENGESGRERPLRAGESWFLVEKHWYKQWEAYVQGGDQDSSTFPGCINNATLFQDEINWRLKEGLVEGEDYVLLPAAAWHYLVSWYGLEHGQPPIERKVIELPNIQKVEVYPVELLLVRHNDLGKSHTVQFSHTDSIGLVLRTARERFLVEPQEDTRLWAKNSEGSLDRLYDTHITVLDAALETGQLIIMETRKKDGTWPSAQLHVMNNNMSEEDEDFKGQPGICGLTNLGNTCFMNSALQCLSNVPQLTEYFLNNCYLEELNFRNPLGMKGEIAEAYADLVKQAWSGHHRSIVPHVFKNKVGHFASQFLGYQQHDSQELLSFLLDGLHEDLNRVKKKEYVELCDAAGRPDQEVAQEAWQNHKRRNDSVIVDTFHGLFKSTLVCPDCGNVSVTFDPFCYLSVPLPISHKRVLEVFFIPMDPRRKPEQHRLVVPKKGKISDLCVALSKHTGISPERMMVADVFSHRFYKLYQLEEPLSSILDRDDIFVYEVSGRIEAIEGSREDIVVPVYLRERTPARDYNNSYYGLMLFGHPLLVSVPRDRFTWEGLYNVLMYRLSRYVTKPNSDDEDDGDEKEDDEEDKDDVPGPSTGGSLRDPEPEQAGPSSGVTNRCPFLLDNCLGTSQWPPRRRRKQLFTLQTVNSNGTSDRTTSPEEVHAQPYIAIDWEPEMKKRYYDEVEAEGYVKHDCVGYVMKKAPVRLQECIELFTTVETLEKENPWYCPSCKQHQLATKKLDLWMLPEILIIHLKRFSYTKFSREKLDTLVEFPIRDLDFSEFVIQPQNESNPELYKYDLIAVSNHYGGMRDGHYTTFACNKDSGQWHYFDDNSVSPVNENQIESKAAYVLFYQRQDVARRLLSPAGSSGAPASPACSSPPSSEFMDVN
modifications: full-length

Test system: proteins that co-immunoprecipitated with DUX4-CTD constructs expressed in MB135 myoblasts
Assay: LC-MS of proteins co-immunoprecipitated with DUX4-CTD (Table 1) and western validation
Format: binding, human
Design: key to 4. mL1dL2 + Dox + IFNG / 4. + IFNG mix / 4. longCTD + Dox + IFNG / 3. + IFNg + Dox longCTD / 3. + Dox longCTD / 3. + IFNG longCTD: peptide-spectrum matches (PSMs) per protein
Conditions: for 4. longCTD + Dox + IFNG: LC-MS counts of the listed protein co-immunoprecipitated with DUX4-CTD bait longCTD, experiment 4, Dox + IFNG; for 3. + Dox longCTD: experiment 3, Dox only; for 3. + IFNg + Dox longCTD: experiment 3, IFNg + Dox; for SUM of PSMS: sum over all samples
Procedure, shortened: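 FLAG-tagged DUX4-CTD expressed in doxycycline-induced MB135 myoblasts, some also IFNG-treated; nuclear lysates in pH 7.4 NP-40 IP buffer were pre-cleared, then anti-FLAG immunoprecipitated 3 h at 4 °C. For LC-MS, FLAG-peptide elution, in-gel trypsin digest, Orbitrap analysis; proteins with ≥2 PSMs in both experiments categorised and ranked by total PSMs.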

Molecule	4. longCTD + Dox + IFNG	3. + Dox longCTD (bait longCTD)	3. + IFNg + Dox longCTD (bait longCTD)	SUM of PSMS	3. + IFNG longCTD (bait longCTD, experiment 3, IFNG only, no doxycycline (bait at background level))
B1	11	1	2	16	–
B2	6	–	3	21	–
B3	34	4	13	82	–
B4	33	3	13	51	–
B5	16	–	3	42	–
B6	13	30	62	152	4
B7	2	–	1	4	–
